From PMC9014876, “Vault RNA1–1 riboregulates the autophagic function of p62 by binding to lysine 7 and arginine 21, both of which are critical for p62 oligomerization”

Biological target: MBP-p62 WT (Homo sapiens, UniProt Q13501 1-440)
Experiment: EMSA; 2.5 mM Mg2+; bacterial tRNA and BSA; EMSA: 20 mM HEPES pH 7.9, 100 mM KCl, 2.5 mM MgCl2, 5 mM DTT, 0.2 mM EDTA, 20% glycerol, 1 mg/mL BSA, 150 nM tRNA, room temperature; NMR: 20 mM MES pH 6.5, 100
Details: protein: recombinant; tags: MBP; label: 32P (internal alpha-UTP for EMSA; end-labelled for footprinting); base-paired terminal stem, central flexible loop

B1: vault RNA1-1 WT (structured_RNA)
RNA: GGCUGGCUUUAGCUCAGCGGUUACUUCGACAGUUCUUUAAUUGAAACAAGCAACCUGUCUGGGUUGUUCGAGACCCGCGGGCGCUCUCCAGUCCUUU
binding result: binds
